From US20200255527

Assays:
[1] = molecular target: FH-AGO2-K726R (UniProt Q9UKV8)
[2] = molecular target: FH-AGO2 mono-methylated at K726 (ectopically expressed in MCF-7 cells with LSD1 inhibited) (UniProt Q9UKV8)
Chain of FH-AGO2 mono-methylated at K726 (ectopically expressed in MCF-7 cells with LSD1 inhibited) (Q9UKV8 whole entry): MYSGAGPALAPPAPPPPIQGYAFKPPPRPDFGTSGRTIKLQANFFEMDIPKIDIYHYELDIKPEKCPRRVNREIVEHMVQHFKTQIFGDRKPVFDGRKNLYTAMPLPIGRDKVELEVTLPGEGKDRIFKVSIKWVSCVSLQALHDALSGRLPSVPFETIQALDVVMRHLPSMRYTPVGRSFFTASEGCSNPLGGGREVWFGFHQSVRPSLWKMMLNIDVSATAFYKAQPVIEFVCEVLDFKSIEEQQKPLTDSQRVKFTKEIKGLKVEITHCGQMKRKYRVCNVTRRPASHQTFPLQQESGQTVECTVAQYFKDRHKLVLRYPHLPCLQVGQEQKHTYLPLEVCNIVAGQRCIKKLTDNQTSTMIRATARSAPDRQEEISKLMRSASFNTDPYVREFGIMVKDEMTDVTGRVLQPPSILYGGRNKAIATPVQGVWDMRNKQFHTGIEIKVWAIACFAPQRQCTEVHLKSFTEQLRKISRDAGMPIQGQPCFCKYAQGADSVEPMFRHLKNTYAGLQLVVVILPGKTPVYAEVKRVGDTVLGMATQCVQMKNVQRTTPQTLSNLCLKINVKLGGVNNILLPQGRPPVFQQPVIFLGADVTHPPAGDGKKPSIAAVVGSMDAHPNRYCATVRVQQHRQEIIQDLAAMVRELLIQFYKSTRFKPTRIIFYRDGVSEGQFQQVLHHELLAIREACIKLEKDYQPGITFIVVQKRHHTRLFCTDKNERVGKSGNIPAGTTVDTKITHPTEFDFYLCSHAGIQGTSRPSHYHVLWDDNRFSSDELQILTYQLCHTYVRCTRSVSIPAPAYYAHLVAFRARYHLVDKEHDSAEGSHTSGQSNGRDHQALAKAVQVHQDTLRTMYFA

Chain of FH-AGO2-K726R (Q9UKV8 whole entry K726R): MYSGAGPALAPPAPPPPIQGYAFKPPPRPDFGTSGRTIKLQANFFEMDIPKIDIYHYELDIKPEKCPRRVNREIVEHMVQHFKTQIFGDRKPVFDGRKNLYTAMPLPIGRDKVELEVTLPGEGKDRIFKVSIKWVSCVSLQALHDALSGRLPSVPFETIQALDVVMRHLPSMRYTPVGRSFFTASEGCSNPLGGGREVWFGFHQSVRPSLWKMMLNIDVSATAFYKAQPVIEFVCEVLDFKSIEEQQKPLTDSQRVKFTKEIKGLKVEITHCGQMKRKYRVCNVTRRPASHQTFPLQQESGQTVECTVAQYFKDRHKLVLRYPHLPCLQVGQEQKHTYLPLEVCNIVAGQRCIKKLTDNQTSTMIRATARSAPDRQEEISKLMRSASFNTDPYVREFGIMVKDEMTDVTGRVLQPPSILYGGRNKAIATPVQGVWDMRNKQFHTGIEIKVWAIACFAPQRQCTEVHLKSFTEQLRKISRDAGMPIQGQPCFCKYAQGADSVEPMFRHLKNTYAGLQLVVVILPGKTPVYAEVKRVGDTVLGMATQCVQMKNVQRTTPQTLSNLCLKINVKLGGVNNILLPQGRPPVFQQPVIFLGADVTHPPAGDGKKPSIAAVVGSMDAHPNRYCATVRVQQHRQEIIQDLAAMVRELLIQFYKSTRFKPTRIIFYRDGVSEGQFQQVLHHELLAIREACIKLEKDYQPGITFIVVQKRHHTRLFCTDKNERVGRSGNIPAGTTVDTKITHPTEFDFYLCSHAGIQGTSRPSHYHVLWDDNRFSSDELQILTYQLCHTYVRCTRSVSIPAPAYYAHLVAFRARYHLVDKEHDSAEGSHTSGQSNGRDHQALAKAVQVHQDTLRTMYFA

FH-LSD1 (Flag-HA-tagged LSD1 stably expressed in MCF-7 cells)
K726me1 level in in vitro demethylation assay [1]: had no observable effects on FH-AGO2-K726R
K726me1 level on FH-AGO2 in in vitro demethylation assay [2]: FH-LSD1 but not FH-LSD1-K661A decreased K726me1 level on FH-AGO2

FH-LSD1-K661A (catalytically compromised LSD1)
K726me1 level on FH-AGO2 in in vitro demethylation assay [2]: FH-LSD1 but not FH-LSD1-K661A decreased K726me1 level on FH-AGO2
